The text below walks through data of patent US8614103B2, “Compositions and methods for treating sphingosine-1-phosphate (S1P) related ocular diseases and conditions” (Lpath, Inc., priority 2006, dated 2013).

Series [1] relates to ovarian cancer (OVCAR3) cells. As to the kind of experiment: S1P-induced IL-8 release. The series is classed as cell-based, human. The note with it: 1 uM S1P; 22 hours. How it is done:
FIG. 12 has two panels, A and B, that show data from in vitro cell assays performed using several humanized monoclonal antibody variants. […] As described in Example 16, below, SKOV3 cells were treated for 48 hr. with 500 nM Taxol (Tax) in the presence or absence of 500 nM S1P with huMAbHCLC3 (309), huMAbHCLC5 (308), muMAb S1P (muMAb), or non-specific IgG1 (NS) at a concentration of 1 μg/mL. Values represent means±SEM (n=3) with triplicates run for each data point. “NT” means not treated, and “Veh” stans for vehicle only. […] In the experiments described in detail in Example 16, below, 100,000 OVCAR3 cells/well were starved overnight and 1 uM S1P was added to the culture media alone or pre-incubated with 1 ug/ml of non-specific antibody (NS), pATH201+pATH309 (LC3), pATH201+pATH308 (LC5), pATH207+pATH309 (cysLC3), pATH207+pATH308 (cysLC5), and 0.1 ug/ml (M0.1), 1 ug/ml (M1) or 10 ug/ml (M10) of anti-S1P murine antibody. After 22 hours of incubation, cell supernatants were collected and IL-8 secretion was measured by ELISA using an R&D system Quantikine human CXCL8/IL-8 kit. In the figure “NT” refers to non-treated cells.
In parallel, all the variants were tested for their effects on S1P-induced cytokine release from cancer cells. S1P is known to elicit significant release of IL-8 into the cell-conditioned media from cancer cells.

Series [2] has as its system endothelial cell (EC) infiltration. As to the kind of experiment: In vivo Matrigel plug assay, S1P plugs, EC infiltration. Further details: species or system mouse. The note with it: systemic administration every 48 hrs. As for the experimental part: Based on in vivo studies showing that S1P increased endothelial capillary growth into subcutaneously implanted Matrigel plugs, we speculated that SPHINGOMAB could reduce de novo BV formation in vivo. To investigate this, we employed the in vivo Matrigel Plug assay for neovascularization. In one set of experiments, Matrigel was supplemented with either 1 μM S1P, 0.5 μg/mL bFGF or 1 μg/mL VEGF and then […]. into mice (n=4). After 10 days, the mice were heparinized and injected with the fluorescent lectin, Isolectin B4-FITC, which binds to adhesion molecules expressed by vascular EC that form the growing BVs. The plugs were then excised, frozen in OCT, sectioned and viewed for FITC-stained BVs.
Sections of the plugs were then stained with hemotoxyln & eosin for evaluation of EC infiltration (FIG. 6B). The infiltration of ECs is a critical step in neo-vascularization. […] Cell infiltration is presumed to be ECs although we recognize that other cell types such as immune cells may also be stained.

Series [3] can be described thus: Stability after thermochallenge (TM). The note with it: thermochallenge of supernatants. It counts as physicochemical. As for the experimental part:
The humanized variants were tested for stability after challenge at high temperature. The approximate midpoints of the thermal unfolding transitions (TM) were determined for every humanized variant by subjecting the supernatants to temperatures ranging from 60 to 74° C. These temperatures were chosen based on the denaturation profile observed for the murine antibody molecule after thermochallenging between a broad range of temperatures between 50 and 80° C. The binding properties of each variant were determined before and after thermochallenge.

The test system of series [4] is macrophage and mast cell infiltration. As to the kind of experiment: Murine infarct model, immune cell infiltration. The series is classed as in vivo, mouse. The note with it: 25 mg/kg; four days post-MI. How it is done:
SPHINGOMAB reduced immune-cell wound infiltration in vivo. Mice were subjected to MI, treated with saline or 25 mg/kg SPHINGOMAB 48 hr. after surgery and then sacrificed on day 4. SPHINGOMAB reduced macrophage (A) and mast cell (B) infiltration into the wound. Data are represented as fold decrease of saline-treated values.
Based upon the similarities of immune and inflammatory responses in CNV and CVD, the efficacy of SPHINGOMAB to mitigate immune cell infiltration into a wound was evaluated in a murine infarct model as an indication of SPHINGOMAB's potential effects in mitigating these damages during AMD [Vine, et al. (2005), Opthalmology, vol 112: 2076-80; and Seddon and Chen (2004), Int Opthalmol Clin, vol 44: 17-39]. Four days post-MI, macrophage and mast cell infiltration was evaluated using MAC-1 and MCG35 antibodies, respectively, within the area at risk.

In series [5] the test system is VEGF- or bFGF-induced neovascularization. Description: In vivo Matrigel plug assay, VEGF or bFGF plugs, neovascularization. More on the design: species or system mouse. To be noted: 25 mg/kg i.p. every 48 hrs, 10 days. How it is done: Endogenous S1P from the blood and surrounding tissue could supply a wound with pro-angiogenic stimuli. The ability of SPHINGOMAB to reduce endogenous S1P in a wound was investigated. Optimally stimulated plugs (Matrigel supplemented with 0.5 μg/mL bFGF or […] VEGF) were implanted into mice. Mice received i.p. injections of 25 mg/kg SPHINGOMAB or saline every 48 hrs starting 1 day prior to Matrigel implantation. Each treatment group (Matrigel, Matrigel plus GF or Matrigel plus GF and administered SPHINGOMAB) consisted of a minimum of 6 mice. After 10 days, the mice were treated with heparin, injected with Isolectin B4-FITC, the plugs excised, embedded in OCT freezing medium and sectioned.

Series [6] relates to perivascular fibrosis. Description: Permanent myocardial infarction model, perivascular fibrosis. It counts as in vivo, mouse. To be noted: 25 mg/kg from 48 hrs after surgery; two weeks. As for the experimental part: Studies evaluated the efficacy of SPHINGOMAB to reduce cardiac scar formation after permanent myocardial infarction (MI) via ligation of the left descending coronary artery in mice. Systemic administration of 25 mg/kg SPHINGOMAB or saline was initiated 48 hrs after surgery. Antibody administration at 48 hr. was chosen to allow normal, reparative scar formation to occur during the early remodeling phase and permit beneficial, S1P-stimulated angiogenesis immediately after the MI. Two weeks after the infarct, mice were sacrificed and fibrosis was accessed by Masson's trichrome staining of the cardiac tissue. […] As a control for any non-specific wound-healing responses, sham animals underwent thoracotomy without coronary artery ligation (FIG. 7E).

The subject of series [7] is HUVECs. Description: HUVEC migration, Matrigel chemoinvasion assay. The series is classed as cell-based, human. To be noted: co-incubation with S1P. As for the experimental part: FIG. 5 has two panels, A and B. In panel A, S1P is shown to promote neovascularization through induction of HUVECs tube formation and migration, which is reduced by SPHINGOMAB. […] The number of cells that migrated to the Matrigel membrane were counted in five independent fields.
(§1) Experiments were performed as described by Visentin et al. (Cancer Cell 2006 March; 9(3):225-38).

In series [8] the test system is HUVECs. Description: HUVEC tube formation on Matrigel. It counts as cell-based, human. To be noted: co-incubated with S1P; GF-reduced Matrigel. As for the experimental part:
as §1

B1: LT1002: murine monoclonal antibody to S1P, IgG1 kappa, hybridoma clone 306D326.26 (antibody, listed as Mus sp., V domains shown)
VH: QAHLQQSDAELVKPGASVKISCKVSGFIFIDHTIHWMKQRPEQGLEWIGCISPRHDITKYNEMFRGKATLTADKSSTTAYIQVNSLTFEDSAVYFCARGGFYGSTIWFDFWGQGTTLTVS
VL: ETTVTQSPASLSMAIGEKVTIRCITTTDIDDDMNWFQQKPGEPPNLLISEGNILRPGVPSRFSSSGYGTDFLFTIENMLSEDVADYYCLQSDNLPFTFGSGTKLEIK
As to B1, the “reduction of S1P-induced IL-8 release” value in series [1] is given as “reduced IL-8 release from ovarian cancer cells in a concentration-dependent manner”. Besides, in series [2], the “EC infiltration into S1P Matrigel plugs” value is given as “reduced amount of EC infiltration”. Further, the “TM (approximate midpoint of the thermal unfolding transition)” value in series [3] turned out to be 65 °C. Also, in series [4], the “density of inflammatory macrophages” value is recorded as “dramatically attenuated” and the “density of mast cells” value is on record as “dramatically attenuated”. Further, in series [5], the “decrease in neovascularization of VEGF-containing plugs vs saline-treated” value is 5 fold. Moreover, the “decrease in neovascularization of bFGF-containing plugs vs saline-treated” value in series [5] (0.5 μg/mL bFGF) is reported as 8.5 fold. Moreover, in series [6], the “perivascular fibrosis after MI” value was “almost complete abrogation of perivascular fibrosis”. In addition, in series [7], the “effect on S1P-promoted HUVEC migration and BV formation” value is listed as “neutralize these effects of S1P”. The “capillary-like structure (tube) formation” value in series [8] was “failed to form capillary-like structures”.
